In article PMC6386767, “Characterization of recombinant fructose-1,6-bisphosphatase gene mutations: evidence of inhibition/activation of FBPase protein by gene mutation” (Bioscience Reports, 2019):
Numbering of substitutions follows the chain as printed. Names and notes keep the numbering of the source.

Substrate: O=C(COP(=O)(O)O)[C@@H](O)[C@H](O)[C@H](O)COP(=O)(O)O
Assay: purified protein, by the assay type
Details: apparent Km for substrate FBP, pH 7.5, 37.0 °C
[1] = other: enzyme M177A_2 (second clone)

B1: pig kidney FBPase L73A (Sus scrofa; L74A) (protein)
chain: MTDQAAFDTNIVTLTRFVMEEGRKARGTGEMTQLLNSLCTAVKAISTAVRKAGIAHLYGIAGSTNVTGDQVKKADVLSNDLVINVLKSSFATCVLVSEEDKNAIIVEPEKRGKYVVCFDPLDGSSNIDCLVSIGTIFGIYRKNSTDEPSEKDALQPGRNLVAAGYALYGSATMLVLAMVNGVNCFMLDPAIGEFILVDRDVKIKKKGSIYSINEGYAKEFDPAITEYIQRKKFPPDNSAPYGARYVGSMVADVHRTLVYGGIFMYPANKKSPKGKLRLLYECNPMAYVMEKAGGLATTGKEAVLDIVPTDIHQRAPIILGSPEDVTELLEIYQKHAAK
Km (other: enzyme L73A): 5.10 (± 0.3) µM | Vmax (other: enzyme L73A): 50.5 µM/min | kcat (other: enzyme L73A): 22.5 s⁻¹ | kcat/Km (other: enzyme L73A): 4.41e+06 M⁻¹ s⁻¹

B2: pig kidney FBPase M248D (Sus scrofa; M249D) (protein)
chain: B1 chain with A74L, M249D
Km (other: enzyme M248D): 1.25 (± 0.4) µM | Vmax (other: enzyme M248D): 62.2 µM/min | kcat (other: enzyme M248D): 30.5 s⁻¹ | kcat/Km (other: enzyme M248D): 2.44e+07 M⁻¹ s⁻¹

B3: pig kidney FBPase Y164A (Sus scrofa; Y165A) (protein)
chain: B1 chain with A74L, Y165A
Km (other: enzyme Y164A): 5.30 (± 0.6) µM | Vmax (other: enzyme Y164A): 27.5 µM/min | kcat (other: enzyme Y164A): 13.5 s⁻¹ | kcat/Km (other: enzyme Y164A): 2.6e+06 M⁻¹ s⁻¹

B4: pig kidney FBPase Y113A (Sus scrofa; Y114A) (protein)
chain: B1 chain with A74L, Y114A
Km (other: enzyme Y113A): 2.50 (± 0.3) µM | Vmax (other: enzyme Y113A): 55.5 µM/min | kcat (other: enzyme Y113A): 27.2 s⁻¹ | kcat/Km (other: enzyme Y113A): 1.09e+07 M⁻¹ s⁻¹

B5: pig kidney FBPase K112A (Sus scrofa; K113A) (protein)
chain: B1 chain with A74L, K113A
Km (other: enzyme K112A): 3.25 (± 0.2) µM | Vmax (other: enzyme K112A): 54.7 µM/min | kcat (other: enzyme K112A): 26.8 s⁻¹ | kcat/Km (other: enzyme K112A): 8.25e+06 M⁻¹ s⁻¹

B6: pig kidney FBPase WT (Sus scrofa) (protein)
chain: B1 chain with A74L
Km (other: enzyme WT): 4.80 (± 0.5) µM | Vmax (other: enzyme WT): 41.8 µM/min | kcat (other: enzyme WT): 20.5 s⁻¹ | kcat/Km (other: enzyme WT): 4.3e+06 M⁻¹ s⁻¹

B7: pig kidney FBPase M177A (Sus scrofa; M178A) (protein)
chain: B1 chain with A74L, M178A
Km (other: enzyme M177A_1): 4.20 (± 0.6) µM | Vmax (other: enzyme M177A_1): 26.1 µM/min | kcat (other: enzyme M177A_1): 12.8 s⁻¹ | kcat/Km (other: enzyme M177A_1): 3.1e+06 M⁻¹ s⁻¹ | Km [1]: 4.80 (± 0.5) µM | Vmax [1]: 23.4 µM/min | kcat [1]: 11.5 s⁻¹ | kcat/Km [1]: 2.4e+06 M⁻¹ s⁻¹

B8: pig kidney FBPase L56A (Sus scrofa; L57A) (protein)
chain: B1 chain with L57A, A74L
Km (other: enzyme L56A): 5.20 (± 0.2) µM | Vmax (other: enzyme L56A): 52.3 µM/min | kcat (other: enzyme L56A): 25.6 s⁻¹ | kcat/Km (other: enzyme L56A): 4.9e+06 M⁻¹ s⁻¹
